The labels stand for the following.
B2: full-length GST-SNX5 wild-type (natural protein, human, UniProt Q9Y5X3 1-404, looked up)
chain: MAAVPELLQQQEEDRSKLRSVSVDLNVDPSLQIDIPDALSERDKVKFTVHTKTTLPTFQSPEFSVTRQHEDFVWLHDTLIETTDYAGLIIPPAPTKPDFDGPREKMQKLGEGEGSMTKEEFAKMKQELEAEYLAVFKKTVSSHEVFLQRLSSHPVLSKDRNFHVFLEYDQDLSVRRKNTKEMFGGFFKSVVKSADEVLFTGVKEVDDFFEQEKNFLINYYNRIKDSCVKADKMTRSHKNVADDYIHTAACLHSLALEEPTVIKKYLLKVAELFEKLRKVEGRVSSDEDLKLTELLRYYMLNIEAAKDLLYRRTKALIDYENSNKALDKARLKSKDVKLAEAHQQECCQKFEQLSESAKEELINFKRKRVAAFRKNLIEMSELEIKHARNNVSLLQSCIDLFKNN
notes: sorting nexin 5, human, full-length, residues 1-404, amplified from human cDNA of the GM25256 cell line, in pGEX3; also called GST-SNX5 WT; WT; source: E. coli Rosetta 2 pLysS, purified (GSTrap, size exclusion); not shown: GST, N-terminal, kept
B3: His-SUMO-tagged CHC22 terminal domain, wild-type (domain or fragment, human, UniProt P53675 1-364, looked up)
chain: MAQILPVRFQEHFQLQNLGINPANIGFSTLTMESDKFICIREKVGEQAQVTIIDMSDPMAPIRRPISAESAIMNPASKVIALKAGKTLQIFNIEMKSKMKAHTMAEEVIFWKWVSVNTVALVTETAVYHWSMEGDSQPMKMFDRHTSLVGCQVIHYRTDEYQKWLLLVGISAQQNRVVGAMQLYSVDRKVSQPIEGHAAAFAEFKMEGNAKPATLFCFAVRNPTGGKLHIIEVGQPAAGNQPFVKKAVDVFFPPEAQNDFPVAMQIGAKHGVIYLITKYGYLHLYDLESGVCICMNRISADTIFVTAPHKPTSGIIGVNKKGQVLSVCVEEDNIVNYATNVLQNPDLGLRLAVRSNLAGAEKLF
notes: CHC22 clathrin heavy chain, N-terminal domain (TD), residues 1-364; also called CHC22 TD; His-bdSUMO-CHC22 TD; source: E. coli Rosetta 2 pLysS, purified (HisTrap, size exclusion); not shown: His, N-terminal, kept; bdSUMO, N-terminal, kept

What all share (details): both partners purified
Assay [1] has as its target T1, full-length GST-SNX5 phosphomimetic S226E mutant (human, UniProt Q9Y5X3 1-404, S226E).
T1 construct: sorting nexin 5, human, full-length (1-404) with phosphomimetic point mutation S226E in the BAR domain; The making of the mutant is not described; also called GST-SNX5 S226E; not shown: GST, N-terminal, kept
T1 sequence (looked up): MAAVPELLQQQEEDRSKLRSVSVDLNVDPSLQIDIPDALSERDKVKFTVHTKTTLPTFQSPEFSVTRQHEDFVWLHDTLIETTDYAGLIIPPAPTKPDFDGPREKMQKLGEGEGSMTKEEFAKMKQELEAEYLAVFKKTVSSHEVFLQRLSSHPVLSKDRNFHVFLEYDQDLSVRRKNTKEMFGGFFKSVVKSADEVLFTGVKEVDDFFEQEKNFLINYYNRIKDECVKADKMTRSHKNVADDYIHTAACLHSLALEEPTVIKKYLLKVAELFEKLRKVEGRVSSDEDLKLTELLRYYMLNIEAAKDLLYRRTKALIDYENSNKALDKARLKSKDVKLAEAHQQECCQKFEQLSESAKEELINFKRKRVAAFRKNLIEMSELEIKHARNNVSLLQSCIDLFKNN

For assay [2], the target named is B2.
In assay [3] the target is T2, His-tagged CHC22 Hub (human, UniProt P53675 1074-1640).
T2 construct: CHC22 clathrin heavy chain, Hub domain (C-terminal third), residues 1074-1640; also called His-CHC22-Hub; not shown: 6xHis, N-terminal, kept
T2 sequence (looked up): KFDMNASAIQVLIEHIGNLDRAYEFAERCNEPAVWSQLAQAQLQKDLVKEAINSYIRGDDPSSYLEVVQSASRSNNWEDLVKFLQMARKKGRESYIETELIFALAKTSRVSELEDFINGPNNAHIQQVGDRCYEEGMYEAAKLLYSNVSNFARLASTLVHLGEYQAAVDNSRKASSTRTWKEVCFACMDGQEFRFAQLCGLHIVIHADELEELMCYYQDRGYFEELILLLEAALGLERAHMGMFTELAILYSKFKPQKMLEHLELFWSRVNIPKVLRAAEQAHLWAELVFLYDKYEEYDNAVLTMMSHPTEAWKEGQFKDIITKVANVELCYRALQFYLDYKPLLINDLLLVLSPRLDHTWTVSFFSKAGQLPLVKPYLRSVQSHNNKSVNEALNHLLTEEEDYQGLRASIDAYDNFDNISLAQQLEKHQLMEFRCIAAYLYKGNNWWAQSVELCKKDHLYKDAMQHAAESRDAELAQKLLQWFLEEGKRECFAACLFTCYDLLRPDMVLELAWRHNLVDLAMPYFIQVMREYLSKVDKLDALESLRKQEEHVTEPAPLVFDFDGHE
The experiment in a line: pull-down; His-tagged bait on Ni-NTA HisPur beads, 15 µg purified GST-only or GST-SNX5 as prey in 250 µL His PD buffer for 45 min, immunoblot. A general note: Immunoblotting shows a protein as a band on a membrane.

Assay [4] has as its target T3, full-length His-p115 (UniProt O60763 1-962).
T3 construct: p115, full-length, encoded by plasmid pIY119 (gift, Munro lab); not shown: 6xHis, N-terminal, kept
T3 sequence (looked up): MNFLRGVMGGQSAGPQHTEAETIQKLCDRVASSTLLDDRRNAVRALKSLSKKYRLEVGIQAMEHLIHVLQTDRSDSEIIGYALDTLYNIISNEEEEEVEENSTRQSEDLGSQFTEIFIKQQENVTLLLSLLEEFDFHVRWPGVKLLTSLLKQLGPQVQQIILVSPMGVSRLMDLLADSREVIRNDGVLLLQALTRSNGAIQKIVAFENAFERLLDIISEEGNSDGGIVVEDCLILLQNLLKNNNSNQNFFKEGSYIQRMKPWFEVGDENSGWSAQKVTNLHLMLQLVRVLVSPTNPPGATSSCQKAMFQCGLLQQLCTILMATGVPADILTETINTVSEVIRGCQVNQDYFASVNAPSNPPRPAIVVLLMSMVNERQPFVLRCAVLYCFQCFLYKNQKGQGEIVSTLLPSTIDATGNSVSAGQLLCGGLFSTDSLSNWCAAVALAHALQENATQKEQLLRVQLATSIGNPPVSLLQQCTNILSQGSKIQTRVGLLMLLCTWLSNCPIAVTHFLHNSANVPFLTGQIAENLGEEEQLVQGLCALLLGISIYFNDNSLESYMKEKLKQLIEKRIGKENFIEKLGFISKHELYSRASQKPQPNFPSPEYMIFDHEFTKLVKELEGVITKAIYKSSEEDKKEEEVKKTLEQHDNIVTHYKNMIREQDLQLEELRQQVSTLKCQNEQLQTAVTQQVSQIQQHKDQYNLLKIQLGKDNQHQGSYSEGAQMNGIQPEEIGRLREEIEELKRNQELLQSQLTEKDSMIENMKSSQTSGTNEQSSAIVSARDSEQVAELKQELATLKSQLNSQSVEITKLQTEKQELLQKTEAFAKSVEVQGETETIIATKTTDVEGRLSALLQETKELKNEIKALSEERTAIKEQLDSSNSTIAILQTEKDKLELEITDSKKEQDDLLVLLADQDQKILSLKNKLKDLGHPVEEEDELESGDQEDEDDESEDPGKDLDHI
Described as above.

The target of assay [5] is T4, full-length His-SNX1 (UniProt Q13596 1-522).
T4 construct: SNX1, full-length, residues 1-522, sub-cloned from a plasmid of the Cullen lab into pET15b; also called recombinant SNX1; source: E. coli BL21 (DE3), purified (HisTrap, size exclusion); not shown: 6xHis, N-terminal, kept
T4 sequence (Q13596 whole entry, the tested form may be a part): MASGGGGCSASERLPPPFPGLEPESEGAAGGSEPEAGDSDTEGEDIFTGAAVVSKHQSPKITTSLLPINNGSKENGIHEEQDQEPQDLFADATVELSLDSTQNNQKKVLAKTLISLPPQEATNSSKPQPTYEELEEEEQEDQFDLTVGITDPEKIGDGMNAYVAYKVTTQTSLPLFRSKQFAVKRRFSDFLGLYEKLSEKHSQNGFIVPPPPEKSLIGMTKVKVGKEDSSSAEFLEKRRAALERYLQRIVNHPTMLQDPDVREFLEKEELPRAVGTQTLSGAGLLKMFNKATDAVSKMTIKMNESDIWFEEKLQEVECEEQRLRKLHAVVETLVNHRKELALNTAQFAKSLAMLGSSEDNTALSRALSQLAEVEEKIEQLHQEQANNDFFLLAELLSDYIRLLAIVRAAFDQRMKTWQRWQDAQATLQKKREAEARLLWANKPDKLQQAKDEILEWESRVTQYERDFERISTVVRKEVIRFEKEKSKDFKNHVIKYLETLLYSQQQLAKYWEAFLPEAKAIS

Assay [6] deals with T5, full-length GST-p115 (UniProt O60763 1-962).
T5 construct: p115, full-length, residues 1-962, amplified from pIY119 into pGEX3; not shown: GST, N-terminal, kept
T5 sequence (looked up): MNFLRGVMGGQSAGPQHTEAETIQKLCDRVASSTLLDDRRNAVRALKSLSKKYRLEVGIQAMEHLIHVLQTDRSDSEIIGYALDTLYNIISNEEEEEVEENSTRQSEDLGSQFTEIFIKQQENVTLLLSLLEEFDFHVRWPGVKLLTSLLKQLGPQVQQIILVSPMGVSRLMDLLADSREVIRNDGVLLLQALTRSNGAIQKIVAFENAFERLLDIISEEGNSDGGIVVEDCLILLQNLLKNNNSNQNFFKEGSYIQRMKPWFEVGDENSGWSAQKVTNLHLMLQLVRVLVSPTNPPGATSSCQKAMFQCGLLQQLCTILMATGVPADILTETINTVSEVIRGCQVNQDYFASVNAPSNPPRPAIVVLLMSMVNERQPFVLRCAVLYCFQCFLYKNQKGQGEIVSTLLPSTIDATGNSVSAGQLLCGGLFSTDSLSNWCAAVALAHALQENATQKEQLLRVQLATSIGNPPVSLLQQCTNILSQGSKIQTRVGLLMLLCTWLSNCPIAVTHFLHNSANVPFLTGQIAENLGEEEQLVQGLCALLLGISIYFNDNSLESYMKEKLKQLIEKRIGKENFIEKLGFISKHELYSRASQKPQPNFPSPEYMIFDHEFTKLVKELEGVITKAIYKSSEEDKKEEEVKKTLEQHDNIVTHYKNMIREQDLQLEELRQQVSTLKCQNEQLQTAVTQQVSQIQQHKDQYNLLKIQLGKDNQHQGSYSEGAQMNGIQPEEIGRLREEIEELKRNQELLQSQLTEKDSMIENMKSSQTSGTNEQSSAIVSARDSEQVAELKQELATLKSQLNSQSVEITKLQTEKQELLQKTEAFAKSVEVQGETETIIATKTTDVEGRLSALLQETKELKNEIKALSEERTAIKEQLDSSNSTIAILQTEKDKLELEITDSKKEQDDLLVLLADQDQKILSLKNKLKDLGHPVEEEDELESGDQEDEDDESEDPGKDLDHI
Briefly: pull-down; GST, GST-GGA2-HE or GST-p115 on glutathione beads, 12.5 µg purified His-bdSUMO-CHC22 TD (WT or Chim) in 250 µl CHC22 PD buffer for 45 min, immunoblot.

Assay [7] has as its target T6, His-SUMO-tagged CHC17 terminal domain (human, UniProt Q00610 1-364).
T6 construct: CHC17 clathrin heavy chain, N-terminal domain (TD), residues 1-364; also called CHC17 TD; His-bdSUMO-CHC17 TD; source: E. coli Rosetta 2 pLysS, purified (HisTrap, size exclusion); not shown: His, N-terminal, kept; bdSUMO, N-terminal, kept
T6 sequence (looked up): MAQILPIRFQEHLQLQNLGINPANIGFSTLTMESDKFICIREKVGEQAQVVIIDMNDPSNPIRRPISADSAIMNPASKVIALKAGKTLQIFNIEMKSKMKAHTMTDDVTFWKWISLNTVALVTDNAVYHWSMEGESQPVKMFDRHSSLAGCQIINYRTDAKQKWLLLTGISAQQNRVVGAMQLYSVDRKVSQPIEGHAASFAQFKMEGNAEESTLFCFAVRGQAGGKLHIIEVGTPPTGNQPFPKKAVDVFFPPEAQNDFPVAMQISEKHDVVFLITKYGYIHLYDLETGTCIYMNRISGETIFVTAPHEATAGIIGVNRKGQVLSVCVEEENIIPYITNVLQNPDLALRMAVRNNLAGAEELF
Briefly: pull-down; GST, GST-GGA2-HE or GST-p115 on glutathione beads, 12.5 µg purified His-bdSUMO-CHC17 TD in 250 µl CHC17 PD buffer for 60 min, immunoblot.

Assay [8] deals with B3. Briefly: pull-down; GST, GST-GGA2-HE or GST-p115 on glutathione beads, 12.5 µg purified His-bdSUMO-CHC22 TD (WT or Chim) in 250 µl CHC22 PD buffer for 45 min, immunoblot.

B1: His-tagged CHC22 TxD (domain or fragment, human, UniProt P53675 1521-1640, looked up)
chain: WAQSVELCKKDHLYKDAMQHAAESRDAELAQKLLQWFLEEGKRECFAACLFTCYDLLRPDMVLELAWRHNLVDLAMPYFIQVMREYLSKVDKLDALESLRKQEEHVTEPAPLVFDFDGHE
notes: CHC22 clathrin heavy chain, trimerization domain; methods give residues 1521-1640, the results 1520-1640; Limits told in two ways (1521-1640 in methods, 1520-1640 in results); also called His-22TxD; His-CHC22 TxD; source: E. coli BL21 (DE3), purified (HisTrap, size exclusion); not shown: 6xHis, N-terminal, kept
With B1, the binding result in assay [1] and in assay [2] was “binds” in each case.

B2: the binding result in assay [3], in assay [4] and in assay [5] was “binds” in each case.

Regarding B3, the binding result in assay [6] was “binds”.

B4: GST-GGA2-HE (domain or fragment, UniProt Q9UJY4 316-613, looked up)
chain: GRVTFGNRVTSSLGDIPVSRVFQNPAGCMKTCPLIDLEVDNGPAQMGTVVPSLLHQDLAALGISDAPVTGMVSGQNCCEEKRNPSSSTLPGGGVQNPSADRNLLDLLSAQPAPCPLNYVSQKSVPKEVPPGTKSSPGWSWEAGPLAPSPSSQNTPLAQVFVPLESVKPSSLPPLIVYDRNGFRILLHFSQTGAPGHPEVQVLLLTMMSTAPQPVWDIMFQVAVPKSMRVKLQPASSSKLPAFSPLMPPAVISQMLLLDNPHKEPIRLRYKLTFNQGGQPFSEVGEVKDFPDLAVLGAA
notes: GGA2, hinge-GAE (hinge-ear) fragment, residues 316-613; also called GGA2-hinge-GAE; hinge-ear fragment of GGA2; not shown: GST, N-terminal, kept
As for B4, the binding result in assay [7] and in assay [8] was “binds” throughout.
